Experimental data published in IntAct's records for PubMed 31515488.

B1: DCC-interacting protein 13-alpha (Homo sapiens), Q9UKG1 (parent)
chain: MPGIDKLPIEETLEDSPQTRSLLGVFEEDATAISNYMNQLYQAMHRIYDAQNELSAATHLTSKLLKEYEKQRFPLGGDDEVMSSTLQQFSKVIDELSSCHAVLSTQLADAMMFPITQFKERDLKEILTLKEVFQIASNDHDAAINRYSRLSKKRENDKVKYEVTEDVYTSRKKQHQTMMHYFCALNTLQYKKKIALLEPLLGYMQAQISFFKMGSENLNEQLEEFLANIGTSVQNVRREMDSDIETMQQTIEDLEVASDPLYVPDPDPTKFPVNRNLTRKAGYLNARNKTGLVSSTWDRQFYFTQGGNLMSQARGDVAGGLAMDIDNCSVMAVDCEDRRYCFQITSFDGKKSSILQAESKKDHEEWICTINNISKQIYLSENPEETAARVNQSALEAVTPSPSFQQRHESLRPAAGQSRPPTARTSSSGSLGSESTNLAALSLDSLVAPDTPIQFDIISPVCEDQPGQAKAFGQGGRRTNPFGESGGSTKSETEDSILHQLFIVRFLGSMEVKSDDHPDVVYETMRQILAARAIHNIFRMTESHLLVTCDCLKLIDPQTQVTRLTFPLPCVVLYATHQENKRLFGFVLRTSSGRSESNLSSVCYIFESNNEGEKICDSVGLAKQIALHAELDRRASEKQKEIERVKEKQQKELNKQKQIEKDLEEQSRLIAASSRPNQASSEGQFVVLSSSQSEESDLGEGGKKRESEA
partner: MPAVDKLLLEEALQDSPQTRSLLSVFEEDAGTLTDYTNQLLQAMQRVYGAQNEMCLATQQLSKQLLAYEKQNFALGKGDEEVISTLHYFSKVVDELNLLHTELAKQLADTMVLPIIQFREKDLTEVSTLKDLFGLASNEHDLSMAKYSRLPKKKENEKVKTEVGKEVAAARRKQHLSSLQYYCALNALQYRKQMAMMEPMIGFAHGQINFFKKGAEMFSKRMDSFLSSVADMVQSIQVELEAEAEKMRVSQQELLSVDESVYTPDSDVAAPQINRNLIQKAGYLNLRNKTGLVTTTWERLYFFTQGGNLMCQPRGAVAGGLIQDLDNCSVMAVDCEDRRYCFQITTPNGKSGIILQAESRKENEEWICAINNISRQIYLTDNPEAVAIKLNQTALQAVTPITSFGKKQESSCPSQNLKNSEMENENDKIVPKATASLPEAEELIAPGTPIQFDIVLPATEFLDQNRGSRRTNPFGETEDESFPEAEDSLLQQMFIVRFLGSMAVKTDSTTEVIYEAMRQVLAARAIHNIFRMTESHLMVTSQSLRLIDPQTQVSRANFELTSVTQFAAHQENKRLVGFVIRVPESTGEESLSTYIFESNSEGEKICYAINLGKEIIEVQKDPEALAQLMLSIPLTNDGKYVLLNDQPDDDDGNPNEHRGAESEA
B2: Centrin-1 (Homo sapiens), Q12798 (parent)
chain: MASGFKKPSAASTGQKRKVAPKPELTEDQKQEVREAFDLFDVDGSGTIDAKELKVAMRALGFEPRKEEMKKMISEVDREGTGKISFNDFLAVMTQKMSEKDTKEEILKAFRLFDDDETGKISFKNLKRVANELGENLTDEELQEMIDEADRDGDGEVNEEEFLRIMKKTSLY
partner: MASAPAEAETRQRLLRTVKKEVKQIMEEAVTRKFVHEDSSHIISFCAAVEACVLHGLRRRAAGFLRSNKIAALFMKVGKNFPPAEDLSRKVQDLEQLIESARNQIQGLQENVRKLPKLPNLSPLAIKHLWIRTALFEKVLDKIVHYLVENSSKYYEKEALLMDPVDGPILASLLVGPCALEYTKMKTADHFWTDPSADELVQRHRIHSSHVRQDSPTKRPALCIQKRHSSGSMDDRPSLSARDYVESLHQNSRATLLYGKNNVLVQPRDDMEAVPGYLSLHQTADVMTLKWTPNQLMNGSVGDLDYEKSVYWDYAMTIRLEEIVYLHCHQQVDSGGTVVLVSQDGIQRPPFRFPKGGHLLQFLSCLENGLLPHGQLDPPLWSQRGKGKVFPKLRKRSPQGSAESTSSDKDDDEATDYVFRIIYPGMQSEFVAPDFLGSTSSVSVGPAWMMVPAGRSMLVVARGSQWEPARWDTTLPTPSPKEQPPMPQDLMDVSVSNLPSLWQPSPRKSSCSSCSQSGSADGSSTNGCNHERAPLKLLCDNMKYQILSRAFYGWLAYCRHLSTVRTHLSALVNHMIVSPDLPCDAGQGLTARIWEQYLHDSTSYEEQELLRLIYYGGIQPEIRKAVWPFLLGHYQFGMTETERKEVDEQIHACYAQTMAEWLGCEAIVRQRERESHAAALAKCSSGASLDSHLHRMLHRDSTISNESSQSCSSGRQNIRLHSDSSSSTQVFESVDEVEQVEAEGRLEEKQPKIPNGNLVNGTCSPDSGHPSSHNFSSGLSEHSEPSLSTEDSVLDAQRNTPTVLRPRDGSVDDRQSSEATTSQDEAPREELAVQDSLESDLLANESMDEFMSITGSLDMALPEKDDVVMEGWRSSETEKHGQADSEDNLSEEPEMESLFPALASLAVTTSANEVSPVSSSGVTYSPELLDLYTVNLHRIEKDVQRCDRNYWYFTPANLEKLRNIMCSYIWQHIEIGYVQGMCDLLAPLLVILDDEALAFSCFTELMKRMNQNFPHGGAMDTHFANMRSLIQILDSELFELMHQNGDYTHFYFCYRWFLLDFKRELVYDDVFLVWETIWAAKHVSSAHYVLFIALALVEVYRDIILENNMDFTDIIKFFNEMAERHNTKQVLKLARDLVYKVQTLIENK
B3: Inactive peptidyl-prolyl cis-trans isomerase FKBP6 (Homo sapiens), O75344 (parent)
chain: MGGSALNQGVLEGDDAPGQSLYERLSQRMLDISGDRGVLKDVIREGAGDLVAPDASVLVKYSGYLEHMDRPFDSNYFRKTPRLMKLGEDITLWGMELGLLSMRRGELARFLFKPNYAYGTLGCPPLIPPNTTVLFEIELLDFLDCAESDKFCALSAEQQDQFPLQKVLKVAATEREFGNYLFRQNRFYDAKVRYKRALLLLRRRSAPPEEQHLVEAAKLPVLLNLSFTYLKLDRPTIALCYGEQALIIDQKNAKALFRCGQACLLLTEYQKARDFLVRAQKEQPFNHDINNELKKLASCYRDYVDKEKEMWHRMFAPCGDGSTAGES
partner: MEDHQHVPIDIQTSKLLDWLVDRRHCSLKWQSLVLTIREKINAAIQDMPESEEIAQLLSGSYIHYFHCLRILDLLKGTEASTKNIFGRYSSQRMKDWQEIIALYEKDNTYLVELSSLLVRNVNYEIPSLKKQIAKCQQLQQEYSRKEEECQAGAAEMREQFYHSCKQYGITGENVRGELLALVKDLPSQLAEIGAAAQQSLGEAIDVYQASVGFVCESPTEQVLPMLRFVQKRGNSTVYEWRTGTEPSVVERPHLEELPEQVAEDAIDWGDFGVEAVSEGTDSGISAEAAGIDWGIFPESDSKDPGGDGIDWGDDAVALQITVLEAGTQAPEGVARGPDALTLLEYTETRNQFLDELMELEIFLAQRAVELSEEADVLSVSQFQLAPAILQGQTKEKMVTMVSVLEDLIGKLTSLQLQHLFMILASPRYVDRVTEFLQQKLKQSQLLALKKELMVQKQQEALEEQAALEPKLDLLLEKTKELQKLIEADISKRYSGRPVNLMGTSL
B4: Zinc finger protein 473 (Homo sapiens), Q8WTR7 (parent)
chain: MAEEFVTLKDVGMDFTLGDWEQLGLEQGDTFWDTALDNCQDLFLLDPPRPNLTSHPDGSEDLEPLAGGSPEATSPDVTETKNSPLMEDFFEEGFSQEIIEMLSKDGFWNSNFGEACIEDTWLDSLLGDPESLLRSDIATNGESPTECKSHELKRGLSPVSTVSTGEDSMVHNVSEKTLTPAKSKEYRGEFFSYSDHSQQDSVQEGEKPYQCSECGKSFSGSYRLTQHWITHTREKPTVHQECEQGFDRNASLSVYPKTHTGYKFYVCNEYGTTFSQSTYLWHQKTHTGEKPCKSQDSDHPPSHDTQPGEHQKTHTDSKSYNCNECGKAFTRIFHLTRHQKIHTRKRYECSKCQATFNLRKHLIQHQKTHAAKTTSECQECGKIFRHSSLLIEHQALHAGEEPYKCNERGKSFRHNSTLKIHQRVHSGEKPYKCSECGKAFHRHTHLNEHRRIHTGYRPHKCQECVRSFSRPSHLMRHQAIHTAEKPYSCAECKETFSDNNRLVQHQKMHTVKTPYECQECGERFICGSTLKCHESVHAREKQGFFVSGKILDQNPEQKEKCFKCNKCEKTFSCSKYLTQHERIHTRGVKPFECDQCGKAFGQSTRLIHHQRIHSRVRLYKWGEQGKAISSASLIKLQSFHTKEHPFKCNECGKTFSHSAHLSKHQLIHAGENPFKCSKCDRVFTQRNYLVQHERTHARKKPLVCNECGKTFRQSSCLSKHQRIHSGEKPYVCDYCGKAFGLSAELVRHQRIHTGEKPYVCQECGKAFTQSSCLSIHRRVHTGEKPYRCGECGKAFAQKANLTQHQRIHTGEKPYSCNVCGKAFVLSAHLNQHLRVHTQETLYQCQRCQKAFRCHSSLSRHQRVHNKQQYCL
partner: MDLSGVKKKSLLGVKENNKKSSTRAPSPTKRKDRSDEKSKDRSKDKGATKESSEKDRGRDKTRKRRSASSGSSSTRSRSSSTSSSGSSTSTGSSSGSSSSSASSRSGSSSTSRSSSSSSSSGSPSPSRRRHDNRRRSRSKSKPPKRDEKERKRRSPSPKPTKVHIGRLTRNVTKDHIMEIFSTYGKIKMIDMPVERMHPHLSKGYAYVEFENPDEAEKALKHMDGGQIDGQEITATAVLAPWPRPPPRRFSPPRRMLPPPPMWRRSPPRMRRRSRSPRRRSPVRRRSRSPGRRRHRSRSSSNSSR

Variants of: B1
Conditions: with dp13b_human APPL2, Q8NEU8

effect of a mutation on the interaction | Variant
with no effect | E643Q

Variants of: B2
Conditions: with sgsm1_human SGSM1, Q2NKQ1

effect of a mutation on the interaction | Variant
with no effect | M72T

Variants of: B3
Conditions: with ck5p3_human CDK5RAP3, Q96JB5

effect of a mutation on the interaction | Variant
with no effect | H287N
with no effect | R175Q

Variants of: B4
Conditions: with rnps1_human RNPS1, Q15287

effect of a mutation on the interaction | Variant
with no effect | R223C
with no effect | E309G
with no effect | T164M
with no effect | T654I
with no effect | S59G
with no effect | S535N
with no effect | S662A
with no effect | N82S
